Experimental data taken from US20090311283A1.
Values belong to the substance of their own block, whether it stands above or below them.

What was measured:
HLA-A*2401 (human) = assay: competition with a 125I-labelled probe peptide for purified HLA, gel filtration; binding relative to the standard peptide
HLA-A*0301 (human) = assay: competition with 125I-labelled probe peptide for purified HLA, gel filtration; value relative to standard peptide

binding affinity ratio (IC50 of standard peptide / IC50 of test peptide) (HLA-A*2401 (human)): 0.0001
Substance: HBV ENV 362 peptide WYWGPSLY

Substance: […] (HBV ENV 249, 15-mer) (peptide; other documents disagree on this pair)
binding affinity ratio (IC50 of standard peptide / IC50 of test peptide) (HLA-DRB1*0101 (human)): 0.0026 | binding affinity ratio (IC50 of standard peptide / IC50 of test peptide) (HLA-DRB1*0401 (human)): 0.032 | binding affinity ratio (IC50 of standard peptide / IC50 of test peptide) (HLA-DRB1*0701 (human)): 0.0047 | binding affinity ratio (IC50 of standard peptide / IC50 of test peptide) (HLA-DRB1*1101 (human)): 0.0018 | binding affinity ratio (IC50 of standard peptide / IC50 of test peptide) (HLA-DRB5*0101 (human)): 0.0069

binding affinity ratio (IC50 of standard peptide / IC50 of test peptide) (HLA-A*0301 (human)): 0.0016
Substance: HBV POL 377 LWDFSQF (peptide)

Substance: HBV ENV 177 10-mer peptide […] (peptide; other documents disagree on this pair)
binding affinity ratio (IC50 of standard peptide / IC50 of test peptide) (HLA-A*0201 (human)): 0.0011

Substance: HBV ENV 177 8-mer peptide […] (peptide; other documents disagree on this pair)
binding affinity ratio (IC50 of standard peptide / IC50 of test peptide) (HLA-A*0201 (human)): 0.0019

Substance: HBV ENV 177 9-mer peptide […] (peptide; other documents disagree on this pair)
binding affinity ratio (IC50 of standard peptide / IC50 of test peptide) (HLA-A*0201 (human)): 0.066
